Source: US20260049140A1 (JANUX THERAPEUTICS, published 2026)
Like-named read-outs stand apart in the source and are kept apart here. One block for each binder: values may come before it. Ends that are not written are not given here.

How the values were obtained:
[1] = target: T1, TCE-19; assay: competition ELISA, peptide titrated vs TCE binding to captured CD3
T1 construct: anti-CD3 scFv W233A; anti-TROP2 Fab wt; also called 3091

[2] = target: T2, TCE-1; assay: competition ELISA: peptide titrated and pre-incubated with a constant concentration of TCE-1; TCE-1 bound to plate-captured biotinylated CD3 is detected (blocked ligand: CD3)
T2 construct: anti-CD3 scFv wt fused to anti-TROP2 Fab HC wt

[3] = target: T3, TCE-15; assay: competition ELISA, peptide titrated vs TCE binding to captured CD3
T3 construct: anti-CD3 scFv W112A; anti-TROP2 Fab wt; also called 3087

[4] = target: T4, TCE-3; assay: as above
T4 construct: anti-CD3 scFv R100A; anti-TROP2 Fab wt; also called 3075

[5] = target: T5, TCE-6; assay: as above
T5 construct: anti-CD3 scFv N103A; anti-TROP2 Fab wt; also called 3078

[6] = target: T6, TCE-4; assay: as above
T6 construct: anti-CD3 scFv H101A; anti-TROP2 Fab wt; also called 3076

[7] = target: T7, TROP2 (human, UniProt P09758 27-274, limits assumed, biotinylated (site not stated)); assay: ELISA, biotinylated TROP2 captured on neutravidin coated plates, HRP secondary antibody, OD 450 nm
T7 construct: also called TROP2-biotin; tumor-associated calcium signal transducer 2
T7 sequence (looked up): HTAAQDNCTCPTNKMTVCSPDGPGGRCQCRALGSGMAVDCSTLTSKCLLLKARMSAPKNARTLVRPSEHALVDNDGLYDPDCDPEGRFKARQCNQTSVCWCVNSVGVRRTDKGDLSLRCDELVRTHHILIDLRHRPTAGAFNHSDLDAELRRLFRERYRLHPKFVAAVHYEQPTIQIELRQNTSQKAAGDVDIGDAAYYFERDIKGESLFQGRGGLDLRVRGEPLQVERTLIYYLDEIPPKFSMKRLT

[8] = target: T8, Cyno CD3 (Antigen was biotinylated for capture on the plate (per card); site of biotin and any vendor tag not stated in the passages seen.); assay: Cyno CD3 binding ELISA, TCE titrated
T8 construct: also called cynomolgus CD3
T8 chain: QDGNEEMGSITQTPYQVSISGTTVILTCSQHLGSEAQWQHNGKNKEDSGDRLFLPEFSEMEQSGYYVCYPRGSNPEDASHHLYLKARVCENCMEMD

[9] = target: T9, human TROP2-biotin (human, UniProt P09758 27-274, limits assumed, biotinylated (site not stated)); assay: ELISA, biotinylated TROP2 captured on neutravidin plate, TCE titrated
T9 construct: also called hTROP2-Biotin; Biotinylated TROP2
T9 sequence (looked up): T7 sequence (looked up)

[10] = target: T10, human CD3ε-biotin (human, UniProt P07766 23-126, limits assumed, biotinylated (site not stated)); assay: BLI (Octet), summary table
T10 construct: also called CD3E-bio; CD3E-biotin

[11] = target: T10, human CD3ε-biotin; assay: BLI (Octet), human CD3ε-biotin 10 nM on sensor, 50 nM TCE
[12] = target: T7, TROP2; assay: ELISA, biotinylated TROP2 captured on neutravidin coated plates, HRP secondary antibody, OD 450 nm; remark: listed apart in the source
[13] = target: T10, human CD3ε-biotin; assay: ELISA, biotinylated CD3ε captured on neutravidin plate, TCE titrated
[14] = target: T9, human TROP2-biotin; assay: ELISA, biotinylated TROP2 captured on neutravidin plate, TCE titrated; table row head prints EC50 without a unit, unit taken from the axis Log [TCE nM]
[15] = target: T10, human CD3ε-biotin; assay: Human CD3 binding ELISA, TCE titrated

EC50 (read off the curve) [7]: ~2 nM
B9: TCE-30 (bispecific antibody)
light: DIQLTQSPSSLSASVGDRVSITCKASQDVSIAVAWYQQKPGKAPKLLIYSASYRYTGVPDRFSGSGSGTDFTLTISSLQPEDFAVYYCQQHYITPLTFGAGTKVEIKRTVAAPSVFIFPPSDEQLKSGTASVVCLLNNFYPREAKVQWKVDNALQSGNSQESVTEQDSKDSTYSLSSTLTLSKADYEKHKVYACEVTHQGLSSPVTKSFNRGEC
heavy: not shown
notes: anti-CD3 scFv H101A; anti-TROP2 Fab F108A

CD3 Octet response [10]: 0.74
CD3 t1/2 [10]: 4.26 min
Response [11]: 0.742
B11: TCE-25 (anti-CD3 scFv V239A; anti-TROP2 HC wt) (bispecific antibody)
light: B9 light
heavy: not shown
notes: scFv-Fab; the entry already carries the mutation

EC50 [9]: 1.28 nM
B12: TCE-30 (anti-CD3 scFv H101A; anti-TROP2 (F108A) HC) (bispecific antibody)
light: B9 light
heavy: not shown
notes: scFv-Fab; the entry already carries the mutations

CD3 Octet response [10]: 0.66
CD3 t1/2 [10]: 2.64 min
Kd [10]: 8.39 nM
Kd [11]: 8.39 nM
Response [11]: 0.663
B13: TCE-18 (anti-CD3 scFv L232A; anti-TROP2 HC wt) (bispecific antibody)
light: B9 light
heavy: not shown
notes: as for B11

EC50 (read off the curve) [12]: ~0.7 nM
B14: TCE-31 (bispecific antibody)
light: B9 light
heavy: not shown
notes: anti-CD3 scFv F104A; anti-TROP2 Fab F108A

EC50 [13]: 0.595 nM
EC50 [14]: 1.38 nM
B15: TCE-36 (bispecific antibody)
light chain (anti-TROP2 LC wt): B9 light
heavy chain (anti-CD3 scFv H101A fused to anti-TROP2 D109A Fab HC): not shown
notes: not in the list MOLECULES; also called TCE-36 (anti-CD3 scFv H101A; anti-TROP2 (D109A) HC)

CD3 Octet response [10]: 0.65
CD3 t1/2 [10]: 2.45 min
Response [11]: 0.65
B16: TCE-22 (anti-CD3 scFv N236A; anti-TROP2 HC wt) (bispecific antibody)
light: B9 light
heavy: not shown
notes: as for B11

CD3 t1/2 [10]: 6.45 min
Kd [10]: 12.3 nM
Kd [11]: 12.3 nM
Response [11]: 0.414
B17: TCE-19 (anti-CD3 scFv W233A; anti-TROP2 HC wt) (bispecific antibody)
light: B9 light
heavy: not shown
notes: scFv-Fab; the entry already carries the mutation; also called 3091

CD3 Octet response [10]: 0.73
CD3 t1/2 [10]: 2.67 min
Kd [10]: 6.51 nM
Kd [11]: 6.51 nM
Response [11]: 0.728
B18: TCE-23 (anti-CD3 scFv R237A; anti-TROP2 HC wt) (bispecific antibody)
light: B9 light
heavy: not shown
notes: as for B11

CD3 Octet response [10]: 0.68
Kd [10]: 3.41 nM
Kd [11]: 3.41 nM
Response [11]: 0.682
B19: TCE-21 (anti-CD3 scFv S235A; anti-TROP2 HC wt) (bispecific antibody)
light: B9 light
heavy: not shown
notes: as for B11

EC50 [13]: 1.09 nM
B20: TCE-38 (bispecific antibody)
light chain (anti-TROP2 LC wt): B9 light
heavy chain (anti-CD3 scFv F240A fused to anti-TROP2 D109A Fab HC): not shown
notes: not in the list MOLECULES; also called anti-TROP2 (D109A) HC)

EC50 [8]: 0.671 nM
EC50 [15]: 0.761 nM
EC50 [9]: 1.02 nM
B21: TCE-31 (anti-CD3 scFv F104A; anti-TROP2 (F108A) HC) (bispecific antibody)
light: B9 light
heavy: not shown
notes: as for B12

CD3 Octet response [10]: 0.67
CD3 t1/2 [10]: 1.66 min
Kd [10]: 11.1 nM
Kd [11]: 11.1 nM
Response [11]: 0.674
B22: TCE-20 (anti-CD3 scFv Y234A; anti-TROP2 HC wt) (bispecific antibody)
light: B9 light
heavy: not shown
notes: as for B11

EC50 [9]: 1.07 nM
B23: TCE-35 (anti-CD3 scFv wt; anti-TROP2 (D109A) HC) (bispecific antibody)
light: B9 light
heavy: not shown
notes: as for B11

Kd [11]: 9.11 nM
Response [11]: 0.931
B24: TCE-28 (anti-CD3 scFv N30Q, I109V, G172A, V231A; anti-TROP2 HC wt) (bispecific antibody)
light: B9 light
heavy: not shown
notes: scFv-Fab; the entry already carries the mutations; also called 3100

CD3 Octet response [10]: 0.07
Kd [10]: 31 nM
Kd [11]: 31 nM
Response [11]: 0.0683
B25: TCE-24 (anti-CD3 scFv W238A; anti-TROP2 HC wt) (bispecific antibody)
light: B9 light
heavy: not shown
notes: scFv-Fab; the entry already carries the mutation; also called 3096

The next lines start with the binder.

B1: Peptide-3 (peptide)
peptide: VYCGPEFDESVGCM
modifications: cysteine pairing not given here; also: biotinylated when captured in ELISA
notes: also called 1443
IC50 [1]: > 100000 nM

B2: Peptide-8 (peptide)
peptide: AYCGPEFDESVGCM
modifications: cysteine pairing not given here; also: biotinylated when captured in binding ELISA
notes: also called 1555
IC50 [1]: > 100000 nM
IC50 (read off the curve) [2]: ~400 nM

B3: Peptide-9 (peptide)
peptide: VYCGPEFDESVGCA
modifications: cysteine pairing not given here; also: biotinylated when captured in binding ELISA
notes: also called 1566
IC50 [1]: > 100000 nM

B4: Peptide-2 (peptide)
peptide: GSQCLGPEWEVCPY
modifications: cysteine pairing not given here; also: biotinylated when captured in ELISA
notes: also called 1419
IC50 [3]: > 100000 nM
IC50 [1]: > 100000 nM
IC50 (read off the curve) [2]: ~300 nM

B5: Peptide-10 (peptide)
peptide: ASQCLGPEWEVCPY
modifications: cysteine pairing not given here; also: biotinylated when captured in ELISA
notes: also called 1594
IC50 [1]: > 100000 nM
IC50 (read off the curve) [2]: ~200 nM

B6: Peptide-1 (peptide)
peptide: QGCGTIADPEPHCW
modifications: cysteine pairing not given here; also: biotinylated when captured in ELISA
notes: also called 1363
IC50 [4]: > 100000 nM
IC50 [5]: > 100000 nM
IC50 [3]: > 100000 nM

B7: Peptide-5 (peptide)
peptide: SECLVDLQSDPCYW
modifications: cysteine pairing not given here; also: biotinylated when captured in binding ELISA
notes: also called 1454
IC50 [4]: > 100000 nM
IC50 [6]: > 100000 nM
IC50 (read off the curve) [2]: ~3000 nM

B8: Peptide-4 (peptide)
peptide: DWCWYSPDNDGLCD
modifications: cysteine pairing not given here; also: biotinylated when captured in binding ELISA
notes: also called 1446
IC50 [6]: > 100000 nM
IC50 [5]: 4590 nM
IC50 [3]: > 100000 nM
IC50 (read off the curve) [2]: ~2000 nM

B10: TCE-29 (anti-CD3 scFv wt; anti-TROP2 (F108A) HC) (bispecific antibody)
light: B9 light
heavy: not shown
notes: as for B11
EC50 [8]: 0.184 nM
EC50 [9]: 1.15 nM

B26: TCE-14 (anti-CD3 scFv Y111A; anti-TROP2 HC wt) (bispecific antibody)
light: B9 light
heavy: not shown
notes: scFv-Fab; the entry already carries the mutation; also called 3086
Response [11]: -0.0009

B27: TCE-17 (anti-CD3 scFv V231A; anti-TROP2 HC wt) (bispecific antibody)
light: B9 light
heavy: not shown
notes: as for B11
CD3 t1/2 [10]: 2.96 min
Kd [10]: 6.26 nM
Kd [11]: 6.26 nM
